Reference: patent publication US20200239590A1 (WASHINGTON UNIVERSITY, published 2020)

Tests used:
[1] = molecular target: T1, recombinant TIP1 protein (tax interacting protein 1) (Homo sapiens (Human), UniProt O14907 2-124, limits assumed); test: indirect ELISA, hybridoma supernatant dilutions on coated recombinant TIP1, anti-mouse HRP, TMB
T1 construct: Purified recombinant TIP1 used as coat or analyte in ELISA, Western blot and Biacore
T1 sequence: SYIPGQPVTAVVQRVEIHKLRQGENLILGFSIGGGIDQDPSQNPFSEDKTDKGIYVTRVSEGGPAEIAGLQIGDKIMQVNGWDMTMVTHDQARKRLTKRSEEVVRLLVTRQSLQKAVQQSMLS

[2] = molecular target: T2, TIP1 in or on human tumor cell lines (A549, H460, H23, U251) (human, UniProt O14907 2-124); test: flow cytometry, hybridoma supernatant on A549, H460 and H23 cells, Alexa Fluor 488 anti-mouse antibody
T2 construct: Endogenous TIP1 of tumor cell lines, not transfected cells; also called cell surface TIP1
T2 sequence: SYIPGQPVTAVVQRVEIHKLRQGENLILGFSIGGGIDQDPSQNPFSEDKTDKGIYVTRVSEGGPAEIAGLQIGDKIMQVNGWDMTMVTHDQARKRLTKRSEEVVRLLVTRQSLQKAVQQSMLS

B1: 4B12 mouse monoclonal anti-TIP1 antibody (antibody, V domains shown)
VH: QFQLQQSGAELARPGASVKLSCKASGYTFTSYGISWVKQRTGQGLEWIGEIYFRSGNIYYNEKFKGKATLTADKSSSTAYMELRSLTSEDSAVYFCARSKTFYSNYGGVFDYWGQGTTLTVSS
VL: DVLVTQTPLSLPVSLGDQASISCRSSRSIVHNNGNTYLEWYLQKPGQSPKLLIYKVSNRFSGVPDRFSGSGSGTDFTLKISRVEAEDLGVYYCFQGSHVPPTFGGGTRLEIK
notes: also called 4612
[1]
  binding result: binds

B2: 7H5 mouse monoclonal anti-TIP1 antibody (antibody, V domains shown)
VH: QAQLQQSGAELARPGASVRLSCKASGYILTSSGISWVKQRTGQGLEWIGEIYPRSGNTYYNEKFKGKATLTADKSSSIAYMDLRTLTSEDSAVYFCARSKTFYSKYGGVFDYWGQGTTLTVSS
VL: DVLMTQTPLSLPVSLGDQASISCRSSQNIVHNNGNTYLDWYLQKPGQSPKLLIYKVSNRFSGVPDRFSGSGSGADFTLKISRVEAEDLGVYYCFQGSHVPPTFGGGTKLEIK
notes: Mouse monoclonal from hybridoma
[2]
  binding result: binds

B3: 3D6 mouse monoclonal anti-TIP1 antibody (antibody, V domains shown)
VH: QVQLHQSGAELARPGAAVKLTCKASGYTLTNSGISWVKQRSGQGLEWIGEIYPGSGNIYYNEKFKVKATLTADKSSSTTYMELRSLTSEDSAVYFCARSRTYYSKYGGLFDYWGQGATLTVSS
VL: DVLMTQTPLSLPVRLGDQASISCRSSQSLLHNNGNTYLEWYLQKPGQSPKLLIYKVSSRFSGVPDRFSGSGSGTDFTLKISRVEAKDLGVYYCFQGSHIPPTFGGGTKLEIK
notes: as for B2
[2]
  binding result: binds

B4: 2F10 mouse monoclonal anti-TIP1 antibody (antibody, V domains shown)
VH: QVQLQQSGAELARPGASVKLSCKASGYTFTSSGISWVIQKTGQGLEWIGEIYPRSGNTYYNEKFKAKAALTADKSSSTAHMELRSLTSEDSAVYFCARSKTYYSKYGGFFDYWGQGTPLTVSS
VL: DVLMTQTPLSLPVSLGDQASISCRSSQSIVHGNGNTYLEWYLQKPGQSPKLLIHKVSNRFSGVPDRFSGSGSGTDFTLKISRVEAEDLGVYYCFQGSHVPPTFGGGTKLEIK
notes: Mouse monoclonal from hybridoma, tested as supernatant or purified
[2]
  binding result: binds
